In the assay the target is HIV-1 integrase (IN), recombinant, from the San Francisco isolate SF2 (HIV-1 (San Francisco isolate SF2)). Briefly: cross-linking.

What is called stoichiometry N is the number of molecules, sites or subunits per partner or assembly. As for “HIV-1 integrase (IN), recombinant, from the San Francisco isolate SF2 (enzyme)”, the stoichiometry N stood at 2.

The values are drawn from paper PMC549407.
